Test results published in PMC5799255, “Histone H5 is a potent Antimicrobial Agent and a template for novel Antimicrobial Peptides” (Scientific Reports, 2018).

Assays:
[1] = Circular dichroism (CD) secondary structure analysis, CDSSTR deconvolution; assay type: physicochemical; conditions: for α-helix: room temperature, average of two independent measurements
Protocol: The secondary structure of histone H5 and the three preparations of histone H5-derived peptide H5(61–90) was investigated in different environments: sterile H2O, pH 7.4 (aqueous environment) and 30 mM SDS (mimicking the negatively charged bacterial membrane environment), by circular dichroism (CD) spectroscopy. […] Deconvolution of the spectral data with the CDSSTR program estimated the secondary structural components (α-helix, β-sheet, turns, etc.) of each peptide (Table 8). […] However, the α-helical proportions in the presence of 30 mM SDS were 76.9%, 84.2%, 75.5% and 84.7% for histone H5, H5(61–90) V1, H5(61–90) V2 and H5(61–90) V3, respectively.
The protocol followed for circular dichroism spectrometry was based on previously described methods. Circular dichroism (CD) measurements were performed using a Jasco-715 Spectropolarimeter (Japan Spectroscopic Co., Tokyo), in which the wavelengths scanned were 185 to 260 nm, using a scan speed of 100 nm/min, a bandwidth and data pitch of 1.0 nm, with a quartz cell (0.1 cm path length). Histone H5 and histone H5-derived peptides were dissolved in sterile ddH2O, pH 7.4, or 30 mM SDS. The CD spectrum of sterile ddH2O (buffer of the samples) was used as the blank. Each CD spectrum represents the average of two independent measurements, each in quintuplicate. The CD data was converted to molar ellipticity [θ], which was calculated using the following equation:1 [θ]=CDinmdeg/(10×pathlengthincm×Cr) where Cr = number of residues x molar concentration (mol/L).
In order to estimate secondary structure content, averaged CD spectra for each peptide were analysed using the CDSSTR software. This program analyzes the molar ellipticity [θ] values at each wavelength and compares them with a library of known protein secondary structures (α-helix, β-sheet, turns, etc.) in order to estimate the percentages of the various secondary structural components of the tested peptide samples.

[2] = test system: Pseudomonas aeruginosa biofilms; experiment: MBEC assay (MBEC Assay Biofilm Inoculator), anti-biofilm activity; assay type: cell-based; conditions: 2 h treatment at 37 °C; for biofilm growth inhibition (log inhibition): versus untreated control, three independent trials, P < 0.04
Protocol: (§1) The anti-biofilm activity of histone H5 against P. aeruginosa and L. monocytogenes biofilms was assessed using the MBEC Assay Biofilm Inoculator (formerly the Calgary Biofilm Device (CBD)).
(§2) The preparation of the bacterial suspension was the same as described in the determination of the MIC and MBC, except that the bacterial suspension was adjusted to 10^5 CFUs/ml in LB broth (BHI broth for L. monocytogenes), not PBS. Wells of an MBEC™ Assay Biofilm Inoculator (Innovotech, Edmonton, AB), which contains pegs projecting downwards from the lid that serve as a surface for biofilm formation, were inoculated with 150 µL of bacterial suspension. The plate was incubated for 24 hours at 37 °C (110 rpm) for Pseudomonas aeruginosa bacterial biofilms or for 72 hours at 22 °C (60 rpm) for Listeria monocytogenes. Following incubation, planktonic cells were rinsed away by switching the 96-peg lid to a sterile 96-well microplate with 200 μL of sterile PBS per well. Pegs with established biofilms were incubated with 200 μL of histone H5 (dissolved in sterile water, pH 7.4), in wells of another sterile 96-well microplate containing serially two-fold dilutions of H5. Solutions of gentamicin and kanamycin served as positive controls for P. aeruginosa and L. monocytogenes, respectively, whereas sterile water (pH 7.4) served as a negative control. The device was incubated for 2 hours at 37 °C, 110 rpm for P. aeruginosa and at 22 °C, 60 rpm for L. monocytogenes. The 96-peg lid was then rinsed twice as described above and placed on a sterile 96-well microplate with 200 μL of LB broth (P. aeruginosa) or BHI broth (L. monocytogenes) per well. The microplate was sonicated for 10 minutes (P. aeruginosa) or 30 minutes (L. monocytogenes) in order to dislodge the biofilms from the pegs, after which the peg-lid was replaced with a sterile, normal lid. This microplate was incubated in the EON microplate reader overnight at 37 °C (206 oscillations/min). The EON microplate spectrophotometer with Gen5 data analysis software (BioTek, Winooski, VT, USA) was used to monitor the growth of bacteria by measuring the optical density at 600 nm every 30 minutes for 24 hours (P. aeruginosa) or 48 hours (L. monocytogenes). The lowest histone H5 concentration without visible bacterial growth was designated as the minimum biofilm eradication concentration (MBEC). Additionally, a standard curve for the number of viable bacteria in the inoculum versus bacterial growth lag time was generated, since every microplate additionally contained wells with serially ten-fold diluted bacteria obtained from the uninhibited biofilm control (sterile H2O). Bacterial growth inhibition for each histone H5 concentration tested was determined from this standard curve.

[3] = test system: Listeria monocytogenes biofilms; experiment: as above; assay type: cell-based
Protocol: as §1, §2

[4] = test system: Pseudomonas aeruginosa; experiment: Scanning electron microscopy of treated planktonic bacteria; assay type: cell-based; conditions: 4 µg/mL, 3-hour incubation; three independent trials, each in duplicate
Protocol: (§3) In order to study the effect of histone H5 on bacterial membranes, Gram-positive and Gram-negative planktonic bacteria incubated with histone H5 were visualized by scanning electron microscopy (SEM). Representative SEM images of Listeria monocytogenes and Pseudomonas aeruginosa untreated (H2O control) and histone H5-treated bacterial cells are shown in Fig. 3. […] Similar observations were made in each of three independent trials, each performed in duplicate.
(§4) The same protocols as described in the preparation of the bacterial suspension and the broth microdilution assay were followed to prepare the histone H5-treated bacteria and the untreated control cells for SEM. After a 3-hour incubation of the 1:1 (v/v) ratio of planktonic bacteria and histone H5 (or 1:1 (v/v) ratio of planktonic bacteria and sterile H2O for the untreated control cells), 100 µL of this solution was filtered directly through an Isopore™ polycarbonate membrane filter ([…], EMD Millipore Co Cork, IRL) which was placed in a Swinny Stainless Steel 13 mm Filter Holder (EMD Millipore, MA, USA) connected to vacuum suction. The filter was then removed and placed onto a Kimwipe™ (Kimberly-Clark™ Professional Kimtech Science™) in a glass cell culture dish. The filters were fixed with 5% glutaraldehyde in 0.1 M sodium cacodylate, pH 7.5 (VWR, Radnor, PA, USA) overnight at 4 °C. […]

[5] = test system: Listeria monocytogenes; experiment: as above; assay type: cell-based; conditions: 4 µg/mL, 3-hour incubation; three independent trials, each in duplicate
Protocol: as §3, §4

B1: histone H5: erythrocyte-specific linker histone purified from chicken erythrocytes, 190 amino acids (protein, UniProt P02259 2-190, looked up)
Histone H5: TESLVLSPAPAKPKRVKASRRSASHPTYSEMIAAAIRAEKSRGGSSRQSIQKYIKSHYKVGHNADLQIKLSIRRLLAAGVLKQTKGVGASGSFRLAKSDKAKRSPGKKKKAVRRSTSPKKAARPRKARSPAKKPKATARKARKKSRASPKKAKKPKTVKAKSRKASKAKKVKRSKPRAKSGARKSPKKK
Question: Which “Random Coil” value ([1]; 30 mM SDS, CD) does the source give for B1 here?
Answer: 8.9%

Question: And the Turns ([1]; 30 mM SDS, CD)?
Answer: 4.5%

Question: And the β-sheet ([1]; 30 mM SDS, CD)?
Answer: 9.7%

Question: And the α-helix ([1]; 30 mM SDS, CD 185-260 nm)?
Answer: 76.9%

Question: What about the “Random Coil” value ([1]; sterile ddH2O pH 7.4, CD) of the same molecule?
Answer: 32.2%

Question: And the Turns ([1]; sterile ddH2O pH 7.4, CD)?
Answer: 22.4%

Question: And the β-sheet ([1]; sterile ddH2O pH 7.4, CD)?
Answer: 22.7%

Question: And the α-helix ([1]; sterile ddH2O pH 7.4, CD 185-260 nm)?
Answer: 23.4%

Question: And the “biofilm growth inhibition (log inhibition)” value ([2]; 32 µg/mL)?
Answer: 0.7 ± 0.2 log inhibition

Question: What about the “biofilm growth inhibition (log inhibition)” value ([2]; 64 µg/mL) of the same molecule?
Answer: 1.6 ± 0.5 log inhibition

Question: What about the “biofilm growth inhibition (log inhibition)” value ([2]; 128 µg/mL) of the same molecule?
Answer: 2.3 ± 0.9 log inhibition

Question: And the MBEC ([2]; biofilm grown 24 h at 37 °C on pegs, recovery growth OD600 24 h in LB broth, highest concentration 128 µg/mL, n = 3)?
Answer: >128 µg/mL

Question: And the MBEC/MIC ratio ([3]; MBEC 19.1 ± 13.1 µg/mL versus planktonic MIC)?
Answer: ~5 fold

Question: What about the MBEC ([3]; biofilm grown 72 h at 22 °C on pegs, 2 h treatment at 22 °C, recovery growth OD600 48 h in BHI broth, mean ± SD, n = 3) of the same molecule?
Answer: 19.1 ± 13.1 µg/mL

Question: What about the “bacterial cell morphology by SEM” value [4] of the same molecule?
Answer: indentations in the bacterial membrane, small pore formation

Question: What about the “bacterial cell morphology by SEM” value [5] of the same molecule?
Answer: Multiple indentations in the bacterial membrane, membrane wrinkling and pronounced deformations
